Laboratory results from US20240360194A1, “New Peptides as Potent and Selective GIP Receptor Agonists” (Sanofi, priority 2021, published 2024).
Numbered stars: 1 amine (or outer) side, 2 acyl side, 3 side chain; on linkers, the order of the positions; unused ones are H or OH. Square brackets hold non-standard residues; d marks the D form. Side chains are listed from the residue outwards. * marks the point of attachment. C18 diacid = O=C(O)CCCCCCCCCCCCCCCCC(=O)*; γGlu = O=C(O)[C@H](CCC(=O)[*:2])N[*:1]; αMeF = C[C@](N)(Cc1ccccc1)C(=O)O; hLeu = CC(C)CC[C@H](N)C(=O)O; Iva = CC[C@](C)(N)C(=O)O; AEEA = NCCOCCOCC(=O)O; Aib = CC(C)(N)C(=O)O

T1: human GIP receptor (human, UniProt P48546 22-466)
T1 sequence (looked up): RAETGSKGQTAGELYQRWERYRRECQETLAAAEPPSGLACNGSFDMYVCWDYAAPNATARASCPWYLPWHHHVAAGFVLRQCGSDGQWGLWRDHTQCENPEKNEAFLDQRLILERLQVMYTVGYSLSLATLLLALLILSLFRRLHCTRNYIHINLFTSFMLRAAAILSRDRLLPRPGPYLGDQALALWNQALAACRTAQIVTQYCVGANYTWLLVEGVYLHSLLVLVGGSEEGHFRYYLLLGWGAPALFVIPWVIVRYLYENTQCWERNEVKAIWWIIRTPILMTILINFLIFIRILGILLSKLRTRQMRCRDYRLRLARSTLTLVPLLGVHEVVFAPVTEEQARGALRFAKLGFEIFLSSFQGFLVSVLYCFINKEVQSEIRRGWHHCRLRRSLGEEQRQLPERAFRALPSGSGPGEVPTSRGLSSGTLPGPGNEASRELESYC

B1: SEQ ID NO: 32 (peptide)
peptide: H-Y[Aib]EGTFISDLSI[Aib]K([AEEA-AEEA-γGlu-C18 diacid])DRIHQEE[αMeF]IEWLLAQGPSSGAPPPS-NH2
SMILES: CC[C@H](C)[C@H](NC(=O)[C@H](CCCNC(=N)N)NC(=O)[C@H](CC(=O)O)NC(=O)[C@H](CCCCNC(=O)COCCOCCNC(=O)COCCOCCNC(=O)CC[C@H](NC(=O)CCCCCCCCCCCCCCCCC(=O)O)C(=O)O)NC(=O)C(C)(C)NC(=O)[C@@H](NC(=O)[C@H](CO)NC(=O)[C@H](CC(C)C)NC(=O)[C@H](CC(=O)O)NC(=O)[C@H](CO)NC(=O)[C@@H](NC(=O)[C@H](Cc1ccccc1)NC(=O)[C@@H](NC(=O)CNC(=O)[C@H](CCC(=O)O)NC(=O)C(C)(C)NC(=O)[C@@H](N)Cc1ccc(O)cc1)[C@@H](C)O)[C@@H](C)CC)[C@@H](C)CC)C(=O)N[C@@H](Cc1c[nH]cn1)C(=O)N[C@@H](CCC(N)=O)C(=O)N[C@@H](CCC(=O)O)C(=O)N[C@@H](CCC(=O)O)C(=O)N[C@@](C)(Cc1ccccc1)C(=O)N[C@H](C(=O)N[C@@H](CCC(=O)O)C(=O)N[C@@H](Cc1c[nH]c2ccccc12)C(=O)N[C@@H](CC(C)C)C(=O)N[C@@H](CC(C)C)C(=O)N[C@@H](C)C(=O)N[C@@H](CCC(N)=O)C(=O)NCC(=O)N1CCC[C@H]1C(=O)N[C@@H](CO)C(=O)N[C@@H](CO)C(=O)NCC(=O)N[C@@H](C)C(=O)N1CCC[C@H]1C(=O)N1CCC[C@H]1C(=O)N1CCC[C@H]1C(=O)N[C@@H](CO)C(N)=O)[C@@H](C)CC
notes: Synthetic peptide, 39 residues
B2: SEQ ID NO: 34 (peptide)
peptide: H-Y[Aib]EGTFISD[hLeu]SI[Aib]K([AEEA-AEEA-γGlu-C18 diacid])DRIHQEEFIEWLLAQGPSSGAPPPS-NH2
SMILES: CC[C@H](C)[C@H](NC(=O)[C@H](Cc1ccccc1)NC(=O)[C@H](CCC(=O)O)NC(=O)[C@H](CCC(=O)O)NC(=O)[C@H](CCC(N)=O)NC(=O)[C@H](Cc1c[nH]cn1)NC(=O)[C@@H](NC(=O)[C@H](CCCNC(=N)N)NC(=O)[C@H](CC(=O)O)NC(=O)[C@H](CCCCNC(=O)COCCOCCNC(=O)COCCOCCNC(=O)CC[C@H](NC(=O)CCCCCCCCCCCCCCCCC(=O)O)C(=O)O)NC(=O)C(C)(C)NC(=O)[C@@H](NC(=O)[C@H](CO)NC(=O)[C@H](CCC(C)C)NC(=O)[C@H](CC(=O)O)NC(=O)[C@H](CO)NC(=O)[C@@H](NC(=O)[C@H](Cc1ccccc1)NC(=O)[C@@H](NC(=O)CNC(=O)[C@H](CCC(=O)O)NC(=O)C(C)(C)NC(=O)[C@@H](N)Cc1ccc(O)cc1)[C@@H](C)O)[C@@H](C)CC)[C@@H](C)CC)[C@@H](C)CC)C(=O)N[C@@H](CCC(=O)O)C(=O)N[C@@H](Cc1c[nH]c2ccccc12)C(=O)N[C@@H](CC(C)C)C(=O)N[C@@H](CC(C)C)C(=O)N[C@@H](C)C(=O)N[C@@H](CCC(N)=O)C(=O)NCC(=O)N1CCC[C@H]1C(=O)N[C@@H](CO)C(=O)N[C@@H](CO)C(=O)NCC(=O)N[C@@H](C)C(=O)N1CCC[C@H]1C(=O)N1CCC[C@H]1C(=O)N1CCC[C@H]1C(=O)N[C@@H](CO)C(N)=O
notes: as for B1

The binders below were run against T1, human GIP receptor (assay: cell-based or functional assay).

Binder | hGIPR EC50 (cAMP, human adipocytes) [pM] | hGIPR Emax (cAMP, human adipocytes) [%]
B1 | 600 | 109
H-Y[Aib]EGTFISDLSI[Aib]K([AEEA-AEEA-γGlu-C18 diacid])DRIHQ[Aib]EFIEW[Iva]LAQGPSSGAPPPS-NH2 (Synthetic peptide, 39 residues) [SEQ ID NO: 31] | 700 | 121
B2 | 500 | 112

The binders below were run against T2, human GLP-1 receptor (human, UniProt P43220 24-463) (assay: cell-based or functional assay).

Binder | EC50 hGLP-1R 0.1% BSA (cAMP, HEK-293) [pM]
B1 | > 10000
H-Y[Aib]EGTFISDLSI[Aib]K([AEEA-AEEA-γGlu-C18 diacid])DRIHQ[Aib]EFIEW[Iva]LAQGPSSGAPPPS-NH2 (Synthetic peptide, 39 residues) [SEQ ID NO: 31] | > 10000
B2 | > 10000

Target: T1, human GIP receptor
Test: cell-based or functional assay
Remark: another data set of the same source

Binder | EC50 hGIPR 0% HSA (cAMP, HEK-293) [pM] | EC50 hGIPR 0.1% BSA (cAMP, HEK-293) [pM]
B1 | 0.96 | 119
H-Y[Aib]EGTFISDLSI[Aib]K([AEEA-AEEA-γGlu-C18 diacid])DRIHQ[Aib]EFIEW[Iva]LAQGPSSGAPPPS-NH2 (Synthetic peptide, 39 residues) [SEQ ID NO: 31] | 0.15 | 6.96
B2 | 0.22 | 33.5

These binders were tested against T2, human GLP-1 receptor (assay: displacement of [125I]GLP-1 from HEK-293 membranes expressing hGLP-1R (SPA beads)).

Binder | IC50 [pM]
B1 | 650000
H-Y[Aib]EGTFISDLSI[Aib]K([AEEA-AEEA-γGlu-C18 diacid])DRIHQ[Aib]EFIEW[Iva]LAQGPSSGAPPPS-NH2 (Synthetic peptide, 39 residues) [SEQ ID NO: 31] | 292000
B2 | 195000
